This is an account of results in PMC4290037, “Purification and Characterization of Glucose-6-Phosphate Dehydrogenase from Camel Liver” (Enzyme Research, 2014).

Substrate in this data set: NC(=O)c1ccc[n+]([C@@H]2O[C@H](COP(=O)(O)OP(=O)(O)OC[C@H]3O[C@@H](n4cnc5c(N)ncnc54)[C@H](OP(=O)(O)O)[C@@H]3O)[C@@H](O)[C@H]2O)c1
Put plainly: purified protein.

B1: Glucose-6-phosphate dehydrogenase (camel liver G6PD) (Camelus dromedarius) (protein)
chain: AEQVALSRNQVCGILREELYQGDAFHQSDTHIFIIMGASGDLAKKKIYPTIWWLFRDGLLPEDTYIVGYARSRLTVADIRKQSEPFFKATPEEKPKLEEFFARNSYVAGQYDDAASYERLNSHMNALHQGSQANRLFYLALPPTVYEAVTKNIRETCMSQTGWNRIIVEKPFGRDLQSSNQLSNHISSLFREDQIYRIDHYLGKEMVQNLMVLRFANRIFGPIWNRDNIACVILTFKEPFGTEGRGGYFDEFGIIRDVMQNHLLQMLCLVAMEKPASTDSDDVRDEKVKVLKCISEVQANNVVLGQYVGNPNGEGEATKGYLDDPTVPRGSITATFAAVVLYVENERWDGVPFILRCGKALNERKAEVRLQFRDVAGDIFQQQCKRNEVVIRVQPNEAVYTKMMTKKPGMFFNPEESELDLTYGNRYKNVKLPDAYERLILDVFCGSQMHFVRSDELREAWRIFTPLLHKIEREKLQPIPYVYGSRGPAEADELMKRVGFQYEGTYKWVNPHKL
In general, Km refers to the substrate concentration at which the rate is half of its maximum. Take B1: the Km came out at 81 µM.
